One may read the Kd as the constant that tells how readily two partners part at equilibrium.

We go through eleven molecules from patent US20180155450A1 (Sanofi, published 2018).

First the molecules themselves.
T1: recombinant human IL4 (human, UniProt P05112 25-153)
T1 construct: bought; also called Antigen1
T1 sequence (looked up): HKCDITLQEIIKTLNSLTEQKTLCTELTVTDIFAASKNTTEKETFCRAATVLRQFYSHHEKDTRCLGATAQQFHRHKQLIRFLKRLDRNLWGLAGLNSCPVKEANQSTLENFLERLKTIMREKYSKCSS

B1: CODV-Ig Batch ID 238 (IL4 × IL13 on HC; L1=5, L2=5, L3=5, L4=2) (bispecific antibody)
chain 1: not shown
chain 2: DIVLTQSPASLAVSLGQRATISCRASESVDSYGQSYMHWYQQKAGQPPKLLIYLASNLESGVPARFSGSGSRTDFTLTIDPVQAEDAATYYCQQNAEDSRTFGGGTKLEIKGGGGGDIQMTQSPASLSVSVGDTITLTCHASQNIDVWLSWFQQKPGNIPKLLIYKASNLHTGVPSRFSGSGSGTGFTLTISSLQPEDIATYYCQQAHSYPFTFGGGTKLEIKGGGGGRTVAAPSVFIFPPSDEQLKSGTASVVCLLNNFYPREAKVQWKVDNALQSGNSQESVTEQDSKDSTYSLSSTLTLSKADYEKHKVYACEVTHQGLSSPVTKSFNRGEC
B2: CODV-Ig Batch ID 202 (IL4 × IL13 on HC; L1=5, L2=5, L3=1, L4=2) (bispecific antibody)
chain 1: not shown
chain 2: B1 chain 2
B3: CODV-Ig Batch ID 237 (IL4 × IL13 on HC; L1=5, L2=3, L3=5, L4=2) (bispecific antibody)
chain 1: not shown
chain 2: DIVLTQSPASLAVSLGQRATISCRASESVDSYGQSYMHWYQQKAGQPPKLLIYLASNLESGVPARFSGSGSRTDFTLTIDPVQAEDAATYYCQQNAEDSRTFGGGTKLEIKGGGGGDIQMTQSPASLSVSVGDTITLTCHASQNIDVWLSWFQQKPGNIPKLLIYKASNLHTGVPSRFSGSGSGTGFTLTISSLQPEDIATYYCQQAHSYPFTFGGGTKLEIKGGGRTVAAPSVFIFPPSDEQLKSGTASVVCLLNNFYPREAKVQWKVDNALQSGNSQESVTEQDSKDSTYSLSSTLTLSKADYEKHKVYACEVTHQGLSSPVTKSFNRGEC
B4: CODV-Ig Batch ID 201 (IL4 × IL13 on HC; L1=5, L2=3, L3=1, L4=2) (bispecific antibody)
chain 1: not shown
chain 2: B3 chain 2
B5: CODV-Ig Batch ID 233 (IL4 × IL13 on HC; L1=7, L2=3, L3=5, L4=0) (bispecific antibody)
chain 1: not shown
chain 2: DIVLTQSPASLAVSLGQRATISCRASESVDSYGQSYMHWYQQKAGQPPKLLIYLASNLESGVPARFSGSGSRTDFTLTIDPVQAEDAATYYCQQNAEDSRTFGGGTKLEIKGGGGGGGDIQMTQSPASLSVSVGDTITLTCHASQNIDVWLSWFQQKPGNIPKLLIYKASNLHTGVPSRFSGSGSGTGFTLTISSLQPEDIATYYCQQAHSYPFTFGGGTKLEIKGGGRTVAAPSVFIFPPSDEQLKSGTASVVCLLNNFYPREAKVQWKVDNALQSGNSQESVTEQDSKDSTYSLSSTLTLSKADYEKHKVYACEVTHQGLSSPVTKSFNRGEC
B6: CODV-Ig Batch ID 203 (IL4 × IL13 on HC; L1=7, L2=3, L3=1, L4=2) (bispecific antibody)
chain 1: not shown
chain 2: B5 chain 2
B7: CODV-Ig Batch ID 222 (IL4 × IL13 on HC; L1=6, L2=6, L3=3, L4=0) (bispecific antibody)
chain 1: not shown
chain 2: DIVLTQSPASLAVSLGQRATISCRASESVDSYGQSYMHWYQQKAGQPPKLLIYLASNLESGVPARFSGSGSRTDFTLTIDPVQAEDAATYYCQQNAEDSRTFGGGTKLEIKGGGGGGDIQMTQSPASLSVSVGDTITLTCHASQNIDVWLSWFQQKPGNIPKLLIYKASNLHTGVPSRFSGSGSGTGFTLTISSLQPEDIATYYCQQAHSYPFTFGGGTKLEIKGGGGGGRTVAAPSVFIFPPSDEQLKSGTASVVCLLNNFYPREAKVQWKVDNALQSGNSQESVTEQDSKDSTYSLSSTLTLSKADYEKHKVYACEVTHQGLSSPVTKSFNRGEC
B8: CODV-Ig Batch ID 228 (IL4 × IL13 on HC; L1=6, L2=6, L3=3, L4=2) (bispecific antibody)
chain 1: not shown
chain 2: B7 chain 2
B9: CODV-Ig Batch ID 240 (IL4 × IL13 on HC; L1=7, L2=5, L3=5, L4=2) (bispecific antibody)
chain 1: not shown
chain 2: DIVLTQSPASLAVSLGQRATISCRASESVDSYGQSYMHWYQQKAGQPPKLLIYLASNLESGVPARFSGSGSRTDFTLTIDPVQAEDAATYYCQQNAEDSRTFGGGTKLEIKGGGGGGGDIQMTQSPASLSVSVGDTITLTCHASQNIDVWLSWFQQKPGNIPKLLIYKASNLHTGVPSRFSGSGSGTGFTLTISSLQPEDIATYYCQQAHSYPFTFGGGTKLEIKGGGGGRTVAAPSVFIFPPSDEQLKSGTASVVCLLNNFYPREAKVQWKVDNALQSGNSQESVTEQDSKDSTYSLSSTLTLSKADYEKHKVYACEVTHQGLSSPVTKSFNRGEC
B10: CODV-Ig Batch ID 225 (IL4 × IL13 on HC; L1=3, L2=6, L3=3, L4=2) (bispecific antibody)
chain 1: not shown
chain 2: DIVLTQSPASLAVSLGQRATISCRASESVDSYGQSYMHWYQQKAGQPPKLLIYLASNLESGVPARFSGSGSRTDFTLTIDPVQAEDAATYYCQQNAEDSRTFGGGTKLEIKGGGDIQMTQSPASLSVSVGDTITLTCHASQNIDVWLSWFQQKPGNIPKLLIYKASNLHTGVPSRFSGSGSGTGFTLTISSLQPEDIATYYCQQAHSYPFTFGGGTKLEIKGGGGGGRTVAAPSVFIFPPSDEQLKSGTASVVCLLNNFYPREAKVQWKVDNALQSGNSQESVTEQDSKDSTYSLSSTLTLSKADYEKHKVYACEVTHQGLSSPVTKSFNRGEC
B11: CODV-Ig Batch ID 243 (IL4 × IL13 on HC; L1=3, L2=6, L3=6, L4=0) (bispecific antibody)
chain 1: not shown
chain 2: B10 chain 2

T2 sequence (P35225 35-146 limits assumed): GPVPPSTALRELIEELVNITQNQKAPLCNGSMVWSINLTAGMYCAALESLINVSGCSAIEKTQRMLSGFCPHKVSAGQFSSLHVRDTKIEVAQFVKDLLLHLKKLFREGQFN

The first assay addresses T2, recombinant human IL13 (human, UniProt P35225 35-146, limits assumed).
T2 construct: bought; also called Antigen2
Kind of assay: SPR (Biacore 3000), captured CODV-Ig, antigen as analyte.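 Note: kd derived from kinetic fits in BIAevaluation 4.1, with signals referenced against a flow cell lacking captured antibody.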 A general note: SPR reads the build-up and loss of mass on a sensor chip optically.
Procedure: (§1) Kinetic binding analysis by Biacore was performed as follows. Surface plasmon resonance technology on a Biacore 3000 (GE Healthcare) was used for detailed kinetic characterization of purified antibodies. […] Chip surfaces were regenerated with 10 mM glycine pH 2.5. Kinetic parameters were analyzed and calculated in the BIAevaluation program package v4.1 using a flow cell without captured antibody as a reference.
B1: the Kd was determined as 0.0672 nM.
Regarding B2, the equilibrium dissociation constant (Kd) stood at 0.054 nM.
The same measure, in the same setting: the result for B3 reads 0.101 nM.
Still for that read-out and setting: the same measure for B4: 0.072 nM; for B5: 0.113 nM.
For the molecule B6, the dissociation constant Kd came out at 0.046 nM.
On to B7, for which the dissociation constant (Kd) amounted to 0.053 nM.
Same read-out and setting: the same measure for B8: 0.044 nM; for B9: 0.065 nM.
As for B10, the dissociation constant (Kd) was 0.068 nM.
On the same count and under the same terms, the result for B11 reads 0.05 nM.

For another assay, the target named is T1, recombinant human IL4. The assay is described as above.
Procedure: as §1
Regarding B1, the Kd stood at 0.0093 nM.
On the same count and under the same terms, the result for B2 reads 0.009 nM.
For B3, the dissociation constant (Kd) is 0.0081 nM.
On the same count and under the same terms, the result for B4 reads 0.004 nM.
Regarding B5, the Kd worked out at 0.003 nM.
Regarding B6, the Kd is 0.08 nM.
Same read-out and setting: the result for B7 reads 0.007 nM.
In the case of B8, the Kd amounted to 0.007 nM.
As for B9, the Kd came to 0.004 nM.
With B10, the Kd amounted to 0.006 nM.
On the same count and under the same terms, the result for B11 reads 0.005 nM.
